Square brackets hold non-standard residues; d marks the D form. dNle = CCCC[C@@H](N)C(=O)O
B1: AP504m (peptide)
peptide: Ac-RGN[dC]N[dE]S[dK]MNEYYGW[dM]L[dM]L[dT]MGR-NH2
SMILES: CSCC[C@H](NC(=O)[C@@H](CCCCN)NC(=O)[C@H](CO)NC(=O)[C@@H](CCC(=O)O)NC(=O)[C@H](CC(N)=O)NC(=O)[C@@H](CS)NC(=O)[C@H](CC(N)=O)NC(=O)CNC(=O)[C@H](CCCNC(=N)N)NC(C)=O)C(=O)N[C@@H](CC(N)=O)C(=O)N[C@@H](CCC(=O)O)C(=O)N[C@@H](Cc1ccc(O)cc1)C(=O)N[C@@H](Cc1ccc(O)cc1)C(=O)NCC(=O)N[C@@H](Cc1c[nH]c2ccccc12)C(=O)N[C@H](CCSC)C(=O)N[C@@H](CC(C)C)C(=O)N[C@H](CCSC)C(=O)N[C@@H](CC(C)C)C(=O)N[C@@H](C(=O)N[C@@H](CCSC)C(=O)NCC(=O)N[C@@H](CCCNC(=N)N)C(N)=O)[C@H](C)O
B2: AP504d (peptide)
peptide: Ac-RGN[dC]N[dE]S[dK]MNEYYGW[dM]L[dM]L[dT]MGR-NH2
modifications: also: disulfide-linked homodimer (Cys4 to Cys4 of other copy), disulfide at 4, other end not in the chain
B3: AP537m (peptide)
peptide: Ac-RGE[dL]N[dY]F[dW]MNECYGW[dT]M[dN]M[dR]MGK-NH2
SMILES: CSCC[C@H](NC(=O)[C@@H](CCCNC(=N)N)NC(=O)[C@H](CCSC)NC(=O)[C@@H](CC(N)=O)NC(=O)[C@H](CCSC)NC(=O)[C@H](NC(=O)[C@H](Cc1c[nH]c2ccccc12)NC(=O)CNC(=O)[C@H](Cc1ccc(O)cc1)NC(=O)[C@H](CS)NC(=O)[C@H](CCC(=O)O)NC(=O)[C@H](CC(N)=O)NC(=O)[C@H](CCSC)NC(=O)[C@@H](Cc1c[nH]c2ccccc12)NC(=O)[C@H](Cc1ccccc1)NC(=O)[C@@H](Cc1ccc(O)cc1)NC(=O)[C@H](CC(N)=O)NC(=O)[C@@H](CC(C)C)NC(=O)[C@H](CCC(=O)O)NC(=O)CNC(=O)[C@H](CCCNC(=N)N)NC(C)=O)[C@H](C)O)C(=O)NCC(=O)N[C@@H](CCCCN)C(N)=O
B4: AP503m (peptide)
peptide: Ac-RGN[dW]N[dE]S[dK]MNEYYGW[dM]L[dM]T[dC]MGR-NH2
SMILES: CSCC[C@H](NC(=O)[C@@H](CCCCN)NC(=O)[C@H](CO)NC(=O)[C@@H](CCC(=O)O)NC(=O)[C@H](CC(N)=O)NC(=O)[C@@H](Cc1c[nH]c2ccccc12)NC(=O)[C@H](CC(N)=O)NC(=O)CNC(=O)[C@H](CCCNC(=N)N)NC(C)=O)C(=O)N[C@@H](CC(N)=O)C(=O)N[C@@H](CCC(=O)O)C(=O)N[C@@H](Cc1ccc(O)cc1)C(=O)N[C@@H](Cc1ccc(O)cc1)C(=O)NCC(=O)N[C@@H](Cc1c[nH]c2ccccc12)C(=O)N[C@H](CCSC)C(=O)N[C@@H](CC(C)C)C(=O)N[C@H](CCSC)C(=O)N[C@H](C(=O)N[C@H](CS)C(=O)N[C@@H](CCSC)C(=O)NCC(=O)N[C@@H](CCCNC(=N)N)C(N)=O)[C@@H](C)O
B5: AP535m (peptide)
peptide: Ac-RGE[dY]N[dC]F[dW]MNEYYGW[dT]M[dN]M[dR]MGK-NH2
SMILES: CSCC[C@H](NC(=O)[C@@H](CCCNC(=N)N)NC(=O)[C@H](CCSC)NC(=O)[C@@H](CC(N)=O)NC(=O)[C@H](CCSC)NC(=O)[C@H](NC(=O)[C@H](Cc1c[nH]c2ccccc12)NC(=O)CNC(=O)[C@H](Cc1ccc(O)cc1)NC(=O)[C@H](Cc1ccc(O)cc1)NC(=O)[C@H](CCC(=O)O)NC(=O)[C@H](CC(N)=O)NC(=O)[C@H](CCSC)NC(=O)[C@@H](Cc1c[nH]c2ccccc12)NC(=O)[C@H](Cc1ccccc1)NC(=O)[C@@H](CS)NC(=O)[C@H](CC(N)=O)NC(=O)[C@@H](Cc1ccc(O)cc1)NC(=O)[C@H](CCC(=O)O)NC(=O)CNC(=O)[C@H](CCCNC(=N)N)NC(C)=O)[C@H](C)O)C(=O)NCC(=O)N[C@@H](CCCCN)C(N)=O
B6: AP534m (peptide)
peptide: Ac-RGE[dNle]N[dY]F[dW]MNEYYGW[dT]M[dN]M[dC]RGK-NH2
SMILES: CCCC[C@@H](NC(=O)[C@H](CCC(=O)O)NC(=O)CNC(=O)[C@H](CCCNC(=N)N)NC(C)=O)C(=O)N[C@@H](CC(N)=O)C(=O)N[C@H](Cc1ccc(O)cc1)C(=O)N[C@@H](Cc1ccccc1)C(=O)N[C@H](Cc1c[nH]c2ccccc12)C(=O)N[C@@H](CCSC)C(=O)N[C@@H](CC(N)=O)C(=O)N[C@@H](CCC(=O)O)C(=O)N[C@@H](Cc1ccc(O)cc1)C(=O)N[C@@H](Cc1ccc(O)cc1)C(=O)NCC(=O)N[C@@H](Cc1c[nH]c2ccccc12)C(=O)N[C@@H](C(=O)N[C@@H](CCSC)C(=O)N[C@H](CC(N)=O)C(=O)N[C@@H](CCSC)C(=O)N[C@H](CS)C(=O)N[C@@H](CCCNC(=N)N)C(=O)NCC(=O)N[C@@H](CCCCN)C(N)=O)[C@H](C)O
B7: AP536m (peptide)
peptide: Ac-RGE[dL]N[dY]F[dW]MNEYYGW[dT]C[dN]M[dR]MGK-NH2
SMILES: CSCC[C@H](NC(=O)[C@@H](CCCNC(=N)N)NC(=O)[C@H](CCSC)NC(=O)[C@@H](CC(N)=O)NC(=O)[C@H](CS)NC(=O)[C@H](NC(=O)[C@H](Cc1c[nH]c2ccccc12)NC(=O)CNC(=O)[C@H](Cc1ccc(O)cc1)NC(=O)[C@H](Cc1ccc(O)cc1)NC(=O)[C@H](CCC(=O)O)NC(=O)[C@H](CC(N)=O)NC(=O)[C@H](CCSC)NC(=O)[C@@H](Cc1c[nH]c2ccccc12)NC(=O)[C@H](Cc1ccccc1)NC(=O)[C@@H](Cc1ccc(O)cc1)NC(=O)[C@H](CC(N)=O)NC(=O)[C@@H](CC(C)C)NC(=O)[C@H](CCC(=O)O)NC(=O)CNC(=O)[C@H](CCCNC(=N)N)NC(C)=O)[C@H](C)O)C(=O)NCC(=O)N[C@@H](CCCCN)C(N)=O
B8: AP502m (peptide)
peptide: Ac-RGN[dW]N[dE]S[dK]M[dN][dE][dY][dY]GW[dM]L[dM]C[dT]MGR-NH2
SMILES: CSCC[C@H](NC(=O)[C@@H](CCCCN)NC(=O)[C@H](CO)NC(=O)[C@@H](CCC(=O)O)NC(=O)[C@H](CC(N)=O)NC(=O)[C@@H](Cc1c[nH]c2ccccc12)NC(=O)[C@H](CC(N)=O)NC(=O)CNC(=O)[C@H](CCCNC(=N)N)NC(C)=O)C(=O)N[C@H](CC(N)=O)C(=O)N[C@H](CCC(=O)O)C(=O)N[C@H](Cc1ccc(O)cc1)C(=O)N[C@H](Cc1ccc(O)cc1)C(=O)NCC(=O)N[C@@H](Cc1c[nH]c2ccccc12)C(=O)N[C@H](CCSC)C(=O)N[C@@H](CC(C)C)C(=O)N[C@H](CCSC)C(=O)N[C@@H](CS)C(=O)N[C@@H](C(=O)N[C@@H](CCSC)C(=O)NCC(=O)N[C@@H](CCCNC(=N)N)C(N)=O)[C@H](C)O
B9: AP503d (peptide)
peptide: Ac-RGN[dW]N[dE]S[dK]MNEYYGW[dM]L[dM]T[dC]MGR-NH2
modifications: also: disulfide-linked homodimer (Cys20 to Cys20 of other copy), disulfide at 20, other end not in the chain

Molecular target: Aβ42 (UniProt P05067 672-713)
Assay: cell-based or functional assay

Aβ42, sequence (P05067 672-713 limits assumed): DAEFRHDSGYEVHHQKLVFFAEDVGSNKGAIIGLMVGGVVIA

Binder	% inhibition of fibril formation (ThT), AP:Aβ42 1:1	% inhibition of fibril formation (ThT), AP:Aβ42 1:10	% inhibition of fibril formation (ThT), AP:Aβ42 1:100
Ac-RGE[dNle]N[dY]F[dW]MNEYYGW[dT]M[dN]M[dC]RGK-NH2 (also: disulfide-linked homodimer via Cys20) [AP534d]	100%	92.2%	51.3%
B1	30%	19.2%	0%
B2	100%	100%	64.3%
B3	54.2%	0%	0%
B4	61.8%	16.2%	0%
B5	62.3%	31.3%	0%
Ac-RGE[dY]N[dC]F[dW]MNEYYGW[dT]M[dN]M[dR]MGK-NH2 (also: homodimer: D-Cys6 disulfide-bonded to D-Cys6 of other copy) [AP535d]	100%	98.2%	53.7%
B6	40.2%	11.2%	0%
Ac-RGE[dL]N[dY]F[dW]MNEYYGW[dT]C[dN]M[dR]MGK-NH2 (also: homodimer: Cys17 disulfide-bonded to Cys17 of other copy) [AP536d]	100%	85.2%	43.1%
Ac-RGN[dW]N[dE]S[dK]MNEYYGW[dM]L[dM]C[dT]MGR-NH2 (also: disulfide-linked homodimer via Cys19) [AP501d]	90%	81.4%	48.2%
B7	74.1%	21.4%	0%
B8	23.8%	0%	0%
Ac-RGN[dW]N[dE]S[dK]M[dN][dE][dY][dY]GW[dM]L[dM]C[dT]MGR-NH2 (also: disulfide-linked homodimer via Cys19) [AP502d]	100%	88.4%	47.1%
Ac-RGE[dL]N[dY]F[dW]MNECYGW[dT]M[dN]M[dR]MGK-NH2 (also: homodimer: Cys12 disulfide-bonded to Cys12 of other copy) [AP537d]	90.2%	82.3%	72%
B9	100%	100%	70.1%

— patent US20230048960A1 (University of Washington, published 2023)
